# According to patent US20140287419A1, “Compositions Having Dicamba Decarboxylase Activity and Methods of Use” (priority 2013, published 2014):
# Where a chain is given by its changes, count along the chain named.
# B1: 118 (protein)
# chain: MAKKPRIDMHSHFFPRISEQEAAKFDANHAPWLQVSAKGDTGSIMMGKNNFQPVYQALWDPAFRIEEMDAQGVDVQVTCATPVMFGYTWEANKAAQWAERMNDFALEFAAHNPQRIKVLAQVPLQDLDLACKEASRAVAAGHLGIQIGNHLGDKDLDDATLEAFLTHCANEDIPILVHGTDMMGGQRMKKWGLPWLVALAAEVQLAILSLILSGAFERIPKSLKICFSHGGGSFAFLLGLVDEAWRHVDIVREDCPRPPSEYVDRFFVDSVGNPGALELLVSVMGEDRVMLGSDYPHTTGEQKIGGLVLSSNLGESAKDKIISGNASKFFNINV
# modifications: Dicamba decarboxylase variant clone DC.5.033
# B2: 119 (protein)
# chain: B1 chain with T180W, P194Y, L199H, A200H, L237T, L240W, H297L
# modifications: Dicamba decarboxylase variant cloneDC.5.034
# B3: 100 (protein, listed as Reinekea blandensis)
# chain: MAIIDCHGHYTTTPKGVEDYRNAQKAAVAKDPSFKGEKGQVVVSDDEIRESIENNQLKMQRERGTDLTIFSPRASWMGHHIGNEYTSQFWTEHQNDLIRRVCDLFPKNFAPVAQLPQSPGVDPAKSVPEIVRTVEQMGFIGINLNPDPSGGYWKDTSLADRAFYPIYEKMVEYDIPAMIHVSAACNDCFHTTGSHYLGADTTGFQQLIMSDVFKDFPSLKIIIPHGGGAVPYHWGRFRGLMQDQGYAPLEESALKNIYFDTCVYHQRGIDLLLDIVPTQNILFASEMIGAVRGIDPETGHNFDDTKRYIDNNTALNAEEKAMIFEGNARRVFSRLKTD
# B4: 95 (protein, listed as Pseudomonas fluorescens)
# chain: MAKKPRIDMHSHFFPRISEQEAAKFDANHAPWLQVSAKGDTGSIMMGKNNFRPVYQALWDPAFRIEEMDAQGVDVQVTCATPVMFGYTWEANKAAQWAERMNDFALEFAAHNPQRIKVLAQVPLQDLDLACKEASRAVAAGHLGIQIGNHLGDKDLDDATLEAFLTHCANEDIPILVHPWDMMGGQRMKKWMLPWLVAMPAETQLAILSLILSGAFERIPKSLKICFGHGGGSFAFLLGRVDNAWRHRDIVREDCPRPPSEYVDRFFVDSAVFNPGALELLVSVMGEDRVMLGSDYPFPLGEQKIGGLVLSSNLGESAKDKIISGNASKFFNINV
# B5: 117 (protein)
# chain: B4 chain with W195V, M199A, T203V, G228A, H229G, R240I, N243L, A271L, L300T
# modifications: Dicamba decarboxylase variant clone DC.5.008
# B6: 41 (protein, listed as Polaromonas sp.)
# chain: MANGKIALEEHFATEETLMDSAGFVPDKDWPELRSRLLDIQDRRVRLMDEHGIETMILSLNAPAVQAIADSTRANETARRANDFLAEQVAKQPTRFRGFAALPMQDPELAARELERCVKELGFVGALVNGFSQDNRSAVPLYYDMAQYWPFWETVQALDVPFYLHPRNPLPSDARIYDGHAWLLGPTWAFGQETAVHALRLMGSGLFDKYPALKIILGHMGEGLPYSMWRIDHRNAWIKTTPKYPAKRKIVDYFNENFYLTTSGNFRTQTLIDAILEIGADRILFSTDWPFENIDHAADWFENTSISEADRKKIGWGNAQNLFKLNR
# Assay: Dicamba decarboxylation activity of computationally designed protein variants
# Conditions: Table 4, variants designed to introduce activity
row,Molecule,Dicamba Decarboxylation activity
1,B1,Yes
2,B2,Yes
3,B3,No
4,B4,No
5,B5,Yes

# Same assay, conditions: Table 5, designed variants with improved activity
row,Molecule,Dicamba Decarboxylation activity
1,B6,Yes

# Same assay, conditions: parent SEQ ID NO:1 or SEQ ID NO:41 listed as 100
row,Molecule,Percent Activity Improvement Over Parent (%)
1,B6,100%

# Assay: 14C assay with IPTG-induced recombinant E. coli cells (14CO2 capture from [14C]-carboxyl-labeled dicamba)
# Conditions: IPTG-induced recombinant E. coli cells; [14C]-carboxyl-labeled dicamba; 14CO2 capture
row,Molecule,Dicamba Decarboxylase Activity
1,B3,No
2,B6,High
3,B4,No

# Same assay, conditions: dicamba decarboxylation activity of the protein of the given SEQ ID NO
row,Molecule,Enzymatic Detection level
1,B1,High
2,B2,High
3,B3,No
4,B6,High
5,B4,No
6,B5,High
